Bridge positions count the residues as written; N and C are the ends. Square brackets hold non-standard residues; d marks the D form. Ends that are not written are not given here. * marks the point of attachment. Piperidin‑4‑ylacetic acid = O=C(CC1CCNCC1)*; Oic = O=C(O)[C@@H]1C[C@@H]2CCCC[C@@H]2N1; Cyclopropylacetic acid = O=C(CC1CC1)*; Gly(cPent) = N[C@H](C(=O)O)C1CCCC1; NMeI = CC[C@H](C)[C@H](NC)C(=O)O; aIle = CC[C@@H](C)[C@H](N)C(=O)O; tBuAla = CC(C)(C)C[C@H](N)C(=O)O; aThr = C[C@H](O)[C@H](N)C(=O)O; Chg = N[C@H](C(=O)O)C1CCCCC1; NMePro = CN1CCC[C@H]1C(=O)*; NMeC = CN[C@@H](CS)C(=O)O; NMeA = CN[C@@H](C)C(=O)O; Sar = CNCC(=O)O

The source of these data is US20210246166A1 (Bayer, published 2021).

This test has as its target T1, recombinant rat MASP1 active protease (amino acids 302-704, C-terminal His Tag) (rat, UniProt Q8CHN8 302-704).
T1 sequence: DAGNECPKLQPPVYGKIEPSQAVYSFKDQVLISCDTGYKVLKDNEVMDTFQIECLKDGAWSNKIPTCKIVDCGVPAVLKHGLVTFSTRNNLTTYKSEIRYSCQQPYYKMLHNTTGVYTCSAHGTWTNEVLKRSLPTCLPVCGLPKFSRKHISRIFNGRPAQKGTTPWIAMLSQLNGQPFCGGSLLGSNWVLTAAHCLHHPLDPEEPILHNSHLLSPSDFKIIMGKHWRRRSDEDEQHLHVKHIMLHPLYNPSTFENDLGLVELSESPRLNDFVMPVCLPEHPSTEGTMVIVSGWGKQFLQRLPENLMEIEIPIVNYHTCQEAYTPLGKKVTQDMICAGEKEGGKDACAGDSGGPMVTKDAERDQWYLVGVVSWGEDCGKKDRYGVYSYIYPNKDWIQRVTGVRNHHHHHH
Put plainly: cell-based or functional assay.

B1: Example 250: ((N-Me)P)-IC+SRS-((tBu)A)-PPIC+IPD-NH2 (peptide)
peptide: [NMePro]ICSRS[tBuAla]PPICIPD-NH2
modifications: disulfide 3-11
SMILES: CC[C@H](C)[C@H](NC(=O)[C@@H]1CCCN1C)C(=O)N[C@H]1CSSC[C@@H](C(=O)N[C@H](C(=O)N2CCC[C@H]2C(=O)N[C@@H](CC(=O)O)C(N)=O)[C@@H](C)CC)NC(=O)[C@H]([C@@H](C)CC)NC(=O)[C@@H]2CCCN2C(=O)[C@@H]2CCCN2C(=O)[C@H](CC(C)(C)C)NC(=O)[C@H](CO)NC(=O)[C@H](CCCNC(=N)N)NC(=O)[C@H](CO)NC1=O
In the case of B1, the “rat MASP1 IC50” value is 77 nM.

B2: Example 277: ((N-Me)G)-IC+SRSLPPIC+(allo-I)-PD-NH2 (peptide)
peptide: [Sar]ICSRSLPPIC[aIle]PD-NH2
modifications: disulfide 3-11; N-terminus assumed
SMILES: CC[C@@H](C)[C@H](NC(=O)[C@@H]1CSSC[C@H](NC(=O)[C@@H](NC(=O)CNC)[C@@H](C)CC)C(=O)N[C@@H](CO)C(=O)N[C@@H](CCCNC(=N)N)C(=O)N[C@@H](CO)C(=O)N[C@@H](CC(C)C)C(=O)N2CCC[C@H]2C(=O)N2CCC[C@H]2C(=O)N[C@@H]([C@@H](C)CC)C(=O)N1)C(=O)N1CCC[C@H]1C(=O)N[C@@H](CC(=O)O)C(N)=O
B2: the “rat MASP1 IC50” value came to 190 nM.

B3: Example 276: G-((N-Me)I)-C+SRSLPPIC+IPd-OH (peptide)
peptide: G[NMeI]CSRSLPPICIP[dD]-OH
modifications: disulfide 3-11; N-terminus assumed
SMILES: CC[C@H](C)[C@@H]1NC(=O)[C@@H]2CCCN2C(=O)[C@@H]2CCCN2C(=O)[C@H](CC(C)C)NC(=O)[C@H](CO)NC(=O)[C@H](CCCNC(=N)N)NC(=O)[C@H](CO)NC(=O)[C@@H](NC(=O)[C@H]([C@@H](C)CC)N(C)C(=O)CN)CSSC[C@@H](C(=O)N[C@H](C(=O)N2CCC[C@H]2C(=O)N[C@H](CC(=O)O)C(=O)O)[C@@H](C)CC)NC1=O
As for B3, the “rat MASP1 IC50” value came out at 200 nM.

B4: Example 259: (Piperidin-4-ylacetic acid)-IC+SRS-((tBu)A)-PPI-((N-Me)C)+I-NH2 (peptide)
peptide: {Piperidin‑4‑ylacetic acid}-ICSRS[tBuAla]PPI[NMeC]I-NH2
modifications: disulfide 2-10
SMILES: CC[C@H](C)[C@H](NC(=O)[C@@H]1CSSC[C@H](NC(=O)[C@@H](NC(=O)CC2CCNCC2)[C@@H](C)CC)C(=O)N[C@@H](CO)C(=O)N[C@@H](CCCNC(=N)N)C(=O)N[C@@H](CO)C(=O)N[C@@H](CC(C)(C)C)C(=O)N2CCC[C@H]2C(=O)N2CCC[C@H]2C(=O)N[C@@H]([C@@H](C)CC)C(=O)N1C)C(N)=O
As to B4, the “rat MASP1 IC50” value was found to be 27 nM.

B5: Example 274: (Cyclopropylacetic acid)-IC+SRS-((tBu)A)-PPI-((N-Me)C)+I-NH2 (peptide)
peptide: {Cyclopropylacetic acid}-ICSRS[tBuAla]PPI[NMeC]I-NH2
modifications: disulfide 2-10
SMILES: CC[C@H](C)[C@H](NC(=O)[C@@H]1CSSC[C@H](NC(=O)[C@@H](NC(=O)CC2CC2)[C@@H](C)CC)C(=O)N[C@@H](CO)C(=O)N[C@@H](CCCNC(=N)N)C(=O)N[C@@H](CO)C(=O)N[C@@H](CC(C)(C)C)C(=O)N2CCC[C@H]2C(=O)N2CCC[C@H]2C(=O)N[C@@H]([C@@H](C)CC)C(=O)N1C)C(N)=O
In the case of B5, the “rat MASP1 IC50” value was 89 nM.

B6: Example 275: G-((N-Me)I)-C+SRSLPPIC+IPD-OH (peptide)
peptide: G[NMeI]CSRSLPPICIPD-OH
modifications: disulfide 3-11; N-terminus assumed
SMILES: CC[C@H](C)[C@@H]1NC(=O)[C@@H]2CCCN2C(=O)[C@@H]2CCCN2C(=O)[C@H](CC(C)C)NC(=O)[C@H](CO)NC(=O)[C@H](CCCNC(=N)N)NC(=O)[C@H](CO)NC(=O)[C@@H](NC(=O)[C@H]([C@@H](C)CC)N(C)C(=O)CN)CSSC[C@@H](C(=O)N[C@H](C(=O)N2CCC[C@H]2C(=O)N[C@@H](CC(=O)O)C(=O)O)[C@@H](C)CC)NC1=O
With B6, the “rat MASP1 IC50” value turned out to be 150 nM.

B7: Example 260: A-((N-Me)I)-C+SRSLPPIC+IPD-NH2 (peptide)
peptide: A[NMeI]CSRSLPPICIPD-NH2
modifications: disulfide 3-11; N-terminus assumed
SMILES: CC[C@H](C)[C@@H]1NC(=O)[C@@H]2CCCN2C(=O)[C@@H]2CCCN2C(=O)[C@H](CC(C)C)NC(=O)[C@H](CO)NC(=O)[C@H](CCCNC(=N)N)NC(=O)[C@H](CO)NC(=O)[C@@H](NC(=O)[C@H]([C@@H](C)CC)N(C)C(=O)[C@H](C)N)CSSC[C@@H](C(=O)N[C@H](C(=O)N2CCC[C@H]2C(=O)N[C@@H](CC(=O)O)C(N)=O)[C@@H](C)CC)NC1=O
On to B7, for which the “rat MASP1 IC50” value stood at 160 nM.

B8: Example 282: ((N-Me)G)-IC+SRSLPP-(Chg)-C+IPD-NH2 (peptide)
peptide: [Sar]ICSRSLPP[Chg]CIPD-NH2
modifications: disulfide 3-11; N-terminus assumed
SMILES: CC[C@H](C)[C@H](NC(=O)CNC)C(=O)N[C@H]1CSSC[C@@H](C(=O)N[C@H](C(=O)N2CCC[C@H]2C(=O)N[C@@H](CC(=O)O)C(N)=O)[C@@H](C)CC)NC(=O)[C@H](C2CCCCC2)NC(=O)[C@@H]2CCCN2C(=O)[C@@H]2CCCN2C(=O)[C@H](CC(C)C)NC(=O)[C@H](CO)NC(=O)[C@H](CCCNC(=N)N)NC(=O)[C@H](CO)NC1=O
With B8, the “rat MASP1 IC50” value stood at 470 nM.

B9: Example 278: AIC+SR-(allo-T)-LPPIC+IPD-NH2 (peptide)
peptide: AICSR[aThr]LPPICIPD-NH2
modifications: disulfide 3-11; N-terminus assumed
SMILES: CC[C@H](C)[C@H](NC(=O)[C@H](C)N)C(=O)N[C@H]1CSSC[C@@H](C(=O)N[C@H](C(=O)N2CCC[C@H]2C(=O)N[C@@H](CC(=O)O)C(N)=O)[C@@H](C)CC)NC(=O)[C@H]([C@@H](C)CC)NC(=O)[C@@H]2CCCN2C(=O)[C@@H]2CCCN2C(=O)[C@H](CC(C)C)NC(=O)[C@H]([C@H](C)O)NC(=O)[C@H](CCCNC(=N)N)NC(=O)[C@H](CO)NC1=O
Consider B9, for which the “rat MASP1 IC50” value was 83 nM.

B10: Example 268: AIC+SRS-((tBu)A)-P-(Oic)-I-((N-Me)C)+IPD-NH2 (peptide)
peptide: AICSRS[tBuAla]P[Oic]I[NMeC]IPD-NH2
modifications: disulfide 3-11; N-terminus assumed
SMILES: CC[C@H](C)[C@H](NC(=O)[C@H](C)N)C(=O)N[C@H]1CSSC[C@@H](C(=O)N[C@H](C(=O)N2CCC[C@H]2C(=O)N[C@@H](CC(=O)O)C(N)=O)[C@@H](C)CC)N(C)C(=O)[C@H]([C@@H](C)CC)NC(=O)[C@@H]2C[C@@H]3CCCC[C@@H]3N2C(=O)[C@@H]2CCCN2C(=O)[C@H](CC(C)(C)C)NC(=O)[C@H](CO)NC(=O)[C@H](CCCNC(=N)N)NC(=O)[C@H](CO)NC1=O
Regarding B10, the “rat MASP1 IC50” value turned out to be 100 nM.

B11: Example 254: AIC+SRSLPP-(Chg)-C+IPD-NH2 (peptide)
peptide: AICSRSLPP[Chg]CIPD-NH2
modifications: disulfide 3-11; N-terminus assumed
SMILES: CC[C@H](C)[C@H](NC(=O)[C@H](C)N)C(=O)N[C@H]1CSSC[C@@H](C(=O)N[C@H](C(=O)N2CCC[C@H]2C(=O)N[C@@H](CC(=O)O)C(N)=O)[C@@H](C)CC)NC(=O)[C@H](C2CCCCC2)NC(=O)[C@@H]2CCCN2C(=O)[C@@H]2CCCN2C(=O)[C@H](CC(C)C)NC(=O)[C@H](CO)NC(=O)[C@H](CCCNC(=N)N)NC(=O)[C@H](CO)NC1=O
As to B11, the “rat MASP1 IC50” value was 320 nM.

B12: Example 253: ((N-Me)A)-IC+SRS-((tBu)A)-PPIC+IPD-NH2 (peptide)
peptide: [NMeA]ICSRS[tBuAla]PPICIPD-NH2
modifications: disulfide 3-11; N-terminus assumed
SMILES: CC[C@H](C)[C@H](NC(=O)[C@H](C)NC)C(=O)N[C@H]1CSSC[C@@H](C(=O)N[C@H](C(=O)N2CCC[C@H]2C(=O)N[C@@H](CC(=O)O)C(N)=O)[C@@H](C)CC)NC(=O)[C@H]([C@@H](C)CC)NC(=O)[C@@H]2CCCN2C(=O)[C@@H]2CCCN2C(=O)[C@H](CC(C)(C)C)NC(=O)[C@H](CO)NC(=O)[C@H](CCCNC(=N)N)NC(=O)[C@H](CO)NC1=O
Consider B12, for which the “rat MASP1 IC50” value was 130 nM.

B13: Example 262: AIC+SRSLPP-(Cpg)-C+IPD-NH2 (peptide)
peptide: AICSRSLPP[Gly(cPent)]CIPD-NH2
modifications: disulfide 3-11; N-terminus assumed
SMILES: CC[C@H](C)[C@H](NC(=O)[C@H](C)N)C(=O)N[C@H]1CSSC[C@@H](C(=O)N[C@H](C(=O)N2CCC[C@H]2C(=O)N[C@@H](CC(=O)O)C(N)=O)[C@@H](C)CC)NC(=O)[C@H](C2CCCC2)NC(=O)[C@@H]2CCCN2C(=O)[C@@H]2CCCN2C(=O)[C@H](CC(C)C)NC(=O)[C@H](CO)NC(=O)[C@H](CCCNC(=N)N)NC(=O)[C@H](CO)NC1=O
With B13, the “rat MASP1 IC50” value came out at 490 nM.

B14: Example 261: G-((N-Me)I)-C+SRSLPPIC+IPD-NH2 (peptide)
peptide: G[NMeI]CSRSLPPICIPD-NH2
modifications: disulfide 3-11; N-terminus assumed
SMILES: CC[C@H](C)[C@@H]1NC(=O)[C@@H]2CCCN2C(=O)[C@@H]2CCCN2C(=O)[C@H](CC(C)C)NC(=O)[C@H](CO)NC(=O)[C@H](CCCNC(=N)N)NC(=O)[C@H](CO)NC(=O)[C@@H](NC(=O)[C@H]([C@@H](C)CC)N(C)C(=O)CN)CSSC[C@@H](C(=O)N[C@H](C(=O)N2CCC[C@H]2C(=O)N[C@@H](CC(=O)O)C(N)=O)[C@@H](C)CC)NC1=O
B14: the “rat MASP1 IC50” value is 300 nM.

B15: Example 270: AIC+SRSLP-(Oic)-(Chg)-C+IPD-NH2 (peptide)
peptide: AICSRSLP[Oic][Chg]CIPD-NH2
modifications: disulfide 3-11; N-terminus assumed
SMILES: CC[C@H](C)[C@H](NC(=O)[C@H](C)N)C(=O)N[C@H]1CSSC[C@@H](C(=O)N[C@H](C(=O)N2CCC[C@H]2C(=O)N[C@@H](CC(=O)O)C(N)=O)[C@@H](C)CC)NC(=O)[C@H](C2CCCCC2)NC(=O)[C@@H]2C[C@@H]3CCCC[C@@H]3N2C(=O)[C@@H]2CCCN2C(=O)[C@H](CC(C)C)NC(=O)[C@H](CO)NC(=O)[C@H](CCCNC(=N)N)NC(=O)[C@H](CO)NC1=O
As to B15, the “rat MASP1 IC50” value came to 170 nM.
